Reference: the nanobody polyreactivity screen of Harvey et al. (2022)

Test: yeast display, Sf9 membrane polyspecificity reagent, FACS + sequencing; frameworks hold sequencing errors
Outline: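 Polyreactivity labels are assigned by the sorting gate from which each nanobody was recovered. The gates were low and high (top ~1%), set on anti-HA fluorescence for expression and streptavidin fluorescence for reagent binding. Before sorting, galactose-induced (36–48 hours) yeast display cells were stained for 1 hour at 4 °C with 10% biotinylated, detergent-solubilized Sf9 membrane reagent.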

## QVQLVESGGGLVQAGGSLRLTCAASGSIFRRNAMGWYRQAPGKERELVAAISWSGGDTYYADSVKGRFTISRDNAKNTVYLQMNSLKPEDTAVYYCAAEYYRPYYGESYDYWGQGTQVTVSS
  polyreactivity (PSR sort gate): high polyreactivity

## QVQLVESGGGLVQAGGSLRLTCAASGSIFRYYAMGWYRQAPGKERELVAAISRSGGSTYYADSVKGRFTISRDNAKNTVYLQMNSLKPEDTAVYYCAAEYRVRSQGYDYWGQGTQVTVSS
  polyreactivity (PSR sort gate): high polyreactivity

## QVQLVESGGGLVQAGGSLRLTCAASGSIFSYYAMGWYRQAPGKERELVAAITSGGGTYYADSVKGRFTISRDNAKNTVFLQMNSLKPEDTAVYYCAKDGYPDQDVQVFNDSDYWGQGTQVTVSS
  polyreactivity (PSR sort gate): low polyreactivity

## QVQLVESGGGLVQAGGSLRLTCAASGSIFVGYAMGWYRQAPGKERELVAAITGSGTRTYYADSVKGRFTISRDNAKNTVYLQMNSLKPEDTAVYYCAADYFRYYPYDYWGQGTQVTVSS
  polyreactivity (PSR sort gate): low polyreactivity

## QVQLVESGGGLVQAGGSLRLTCAASGSIFVNNAMGWYRQAPGKERELVAAISSRSSRTFYADSVKGRFTISRDNAKNTVYLQMNSLKPEDTAVYYCAVKKRAPDGDYWGQGTQVTVSS
  polyreactivity (PSR sort gate): high polyreactivity

## QVQLVESGGGLVQAGGSLRLTCAASGSIFVQNAMGWYRQEPGKERELVATISRRGGSTYYADSVKGRFTISRDNAKNTVYLQMNSLKPEDPAVYYSAARKLRTLWGYWGQGTQVTVSS
  polyreactivity (PSR sort gate): high polyreactivity

## QVQLVESGGGLVQAGGSLRLTCAASGSIFYSYAMGWYRQAPGKERELVAAISWDASTYYADSVNGRFTISRDNAKNTVYLQMHSLKPEDSAVYYCNADIPYFFVFDAYDYWGQGTQVTVSS
  polyreactivity (PSR sort gate): low polyreactivity

## QVQLVESGGGLVQAGGSLRLTCAASGSIFYYYAMGWYRQAPGKERELVASITYRGGSTYYADSVKGRFTISRDYAKNTVYLLMNSLKPEDTAFYYCAVVGYRYRHYYWGQGTQVTVSS
  polyreactivity (PSR sort gate): high polyreactivity

## QVQLVESGGGLVQAGGSLRLTCAASGSILYYNAMGWYRQAPGKEREFVAAISDSGSSTYYADSVKGRFTISRDNAKNTVYLQMNSLKPEDTAVYYCNAYQGDKYDSWGQGTQVTVSS
  polyreactivity (PSR sort gate): low polyreactivity

## QVQLVESGGGLVQAGGSLRLTCAASGSIYVGNAMGWNRHAPGKEREFVAAISRSGGRTYYADSVKGRFTISRDNEKNTVYLQMNSLKPEDTAVYYCNAYGWEQRQMDSWGQGTQVTVSS
  polyreactivity (PSR sort gate): high polyreactivity

## QVQLVESGGGLVQAGGSLRLTCAASGSNFVYNAMGWYRQAPGKERELVAAISSRGGSTYYADSVKGRFTISRDNAKNTVYLQMKSLKPEDTAVYYCNAYGPRAYRGGSWGQGTQVTVSS
  polyreactivity (PSR sort gate): high polyreactivity

## QVQLVESGGGLVQAGGSLRLTCAASGSSLDHYTMGWYRQAPGKEMELVAGIRWTGGRTYYADSVKGRFTISRDNAKNTVYLQMNSLKQEDNAVYYCAKTGWYGPVLRFYYWGQGTQVTVSS
  polyreactivity (PSR sort gate): high polyreactivity

## QVQLVESGGGLVQAGGSLRLTCAASGSTFGWYAMGWYRQAPGKERELVAAIRSNGGSTYYADSVKGRFTISRDNAKNTVYLHMNSLKPEDTAVYYCAGRGSPSKHHWYDYWGQGTQVNVSS
  polyreactivity (PSR sort gate): low polyreactivity

## QVQLVESGGGLVQAGGSLRLTCAASGSTFRWYAMGWYRQAPAKERELVAAIRSAGSTDYADSVKGRFTISRDNAKNTVYLQINSLKPEDTAVYYCAAYFRYRSSRYGYWGQGTQVTVSS
  polyreactivity (PSR sort gate): high polyreactivity

## QVQLVESGGGLVQAGGSLRLTCAASGSTFRYYDMGWYRQAPGKERELVAAITTSGDDTYYADSVKRRFTISRDNAKNSVYLPMNSLKPEDTAVYYCAADGYGGHKYELESWGQGTQVTVSS
  polyreactivity (PSR sort gate): low polyreactivity

## QVQLVESGGGLVQAGGSLRLTCAASGSTFSYYAMGWYRQPPRKERELVAVITWSGASTYYADSVKGRFTISRDNAKNTVYLQMNSLKPEDTAVYYCAADKYLSYDYWGQGTQVSVSS
  polyreactivity (PSR sort gate): low polyreactivity

## QVQLVESGGGLVQAGGSLRLTCAASGSTFYFNAIGWYRQAPGKESELVAAISGGGRTNYADSVKGRFTISRDNAKNTVYLQMNSLKPEDTAVYYCAARNRGLRLSNYFGGNYNRDYWGQGTQVTVSS
  polyreactivity (PSR sort gate): low polyreactivity

## QVQLVESGGGLVQAGGSLRLTCAASGSTFYRNAMGWYRQAPVKERELVATISSSDGSTYYADSVKGRFTISRDNAKNTVYLQMNSLKPEDTAVYYCATEIYYTKTYDSWGQGTQVTVSS
  polyreactivity (PSR sort gate): low polyreactivity

## QVQLVESGGGLVQAGGSLRLTCAASGSTFYYNAMGWYRQAPAKERELVADISWRGGITYYADSVKGRFTISRDNAKNTVYLQMNSLKPEDTAVYYFKADAESFDDGYWGQGTQVTVSS
  polyreactivity (PSR sort gate): low polyreactivity

## QVQLVESGGGLVQAGGSLRLTCAASGSTIADNAMGWYRPAPGTERELVAGITRRGGSTYYADSVKGRFTISRDNAKNTVYLQMNSLKPEDTAVYYCNKGPVRGRYSVWPIEMDYWGQGTQVTVSS
  polyreactivity (PSR sort gate): low polyreactivity

## QVQLVESGGGLVQAGGSLRLTCAASGSTSEVYAMGWYRQAPGKEREFVAAISRSGGTTYYADSVKGRFTISRDNAKNTVYLQMKSVKPEDTAVYYCNARGYSGVSGKYGYWGQGTQVTVSS
  polyreactivity (PSR sort gate): high polyreactivity

## QVQLVESGGGLVQAGGSLRLTCAASGSTSPANTMGWYRQAPGKETEFVAGISRRGGRTYYADSVKGRFTISRDNAKNTVYLQMNSLKPEDTAVFYCATALIVRCPSRYEYWGQGTQVTVSS
  polyreactivity (PSR sort gate): high polyreactivity

## QVQLVESGGGLVQAGGSLRLTCAATGRIFSRYAMGWYRQAPGKERELVAAISRSGGSTYYADSVKGRFTISRDNAKNTVYFQMNSLKPEDTAVYYCAARNVFSYPPGSYYYWGQGTQVTVSS
  polyreactivity (PSR sort gate): high polyreactivity

## QVQLVESGGGLVQAGGSLRLTCAGSGSTYGKYAIGGYRQAPGKERQLVAAISYRGGRTFYADSVKGRFTISRDNAKNTVFLQMKSLKPEDTAVYYCAAYPGVSRGTGPRRYDYWGQGTQVTVSS
  polyreactivity (PSR sort gate): high polyreactivity

## QVQLVESGGGLVQAGGSLRLTCASSGIIFKLYAMGWYRQAPAKESELVAAITYRGGTTYYADSVKGRFTITRDNAKNTVYLQMNSLKPEDTAVYYCAVAVTSYSSKKLYYWGQGTQVTVSS
  polyreactivity (PSR sort gate): low polyreactivity

## QVQLVESGGGLVQAGGSLRLTCASSGRILVSYAIGWYRQAPGKERELVAAISRSGGSTYYADSVKGRFTISRDIAKNTVYLQMNSLKTEDTAVYYCNVYRFSRYDYWGQGTKVTVSS
  polyreactivity (PSR sort gate): high polyreactivity

## QVQLVESGGGLVQAGGSLRLTCDASGRIFVHNAMGWYRQAPGKERELVAAISWSGSSTYYADSVKGRFTISRDNAKNSVYLQMNSLKPEDTAVYYCLGQGTQVTVSS
  polyreactivity (PSR sort gate): low polyreactivity

## QVQLVESGGGLVQAGGSLRLTCGASGRIFSFYVMGWYRQAPGKERELVAAISLSGGSTYYADSVKGRFTISRDNAKNTVYLQMNSLKPEDTAVYYCAARYASPRYKSKMDYWGQGTQVTVSS
  polyreactivity (PSR sort gate): high polyreactivity

## QVQLVESGGGLVQAGGSLRLTSAASGFIFWPYLMGWYRQAPGKDRELVAAISQGDGSTYYADSVKVRFTISRDNAKNTVYLQMNSLKGEDTAVYYCAADVTVAWYPVYPGFYYWGQGTQVTVSS
  polyreactivity (PSR sort gate): low polyreactivity

## QVQLVESGGGLVQAGGSLRLTSAASGRIFGYYAMGWYRQAPGKERDLVAAIRYSSGRTYYADSVKGRFTISRDNAKNIVYLQMNSLKPEDTAVYYGNAGYLFLRSYPHDYWGQGTQVTVSS
  polyreactivity (PSR sort gate): high polyreactivity

## QVQLVESGGGLVQAGGSLRLTSAASGSTFLKYTMGWYRQAPGKERELVAGITYSGGSTSYADSVKGRFTISRDNAKNTVYFQMNSLKPEDTAVYYSAAARNTVYSYRGLFYWGQGTQVTLSS
  polyreactivity (PSR sort gate): high polyreactivity

## QVQLVESGGGLVQAGGSLRRSCAAYGRIFTMNAMGWYRQAPGKESELVAVISRSGCSTYYADSVKGRFTISRDNAKNTVYLQMNSLNPEDTAVYYCNAVPIYYAWRRNKPFDYWGLGTQVTVSS
  polyreactivity (PSR sort gate): low polyreactivity
